According to US6740739B1, “Substitutional variants of APO-2 ligand” (Genentech, Inc., priority 1998, dated 2004):

How the values were obtained:
Type in all cases: cell-based, human
HeLa = assay: Cell viability by crystal violet staining
Experimental: (§1) The following human tumor cell lines were assayed: A549 (lung carcinoma, ATCC CCL 185); HCT116 (colon carcinoma, ATCC CCL 247); SW480 (colon adenocarcinoma, ATCC CCL 228); MDA231 (breast adenocarcinoma, ATCC HTB 26); HeLa (cervical carcinoma, ATCC CCL 22); ME-180 (cervical carcinoma, ATCC HTB 33); T24 (bladder carcinoma. ATCC HTB 4); SK-N-AS (neuroblastoma, White et al., Proc. Natl. Acad. Sci., 92:5520-5524 (1995)). The cells were plated at 2.5×10^5 cells/ml in 96 well plates and incubated overnight. The cells were cultured in the presence of 2-fold dilutions of Apo-2 ligand (ranging from 100 ng/ml to 0.01 ng/ml). In some of the cultures, a chemotherapeuticagent was also added for 24 hours-cyclohexamide (“CHX”) (50 μg/ml; Sigma Chemicals), Doxorubicin (10-100 μg/ml; Pharmacia), or 5-FU (6 mg/ml; Roche).
(§2) After 24 hours of incubation, the cells were stained with 0.5% crystal-violetin 20% methanol. Cell viability was determined by eluting the dye from the stained cells with 0.1M sodium citrate (0.1M citric acid in 50% methanol), and measuring absorbance at 540 nm.

SK-N-AS = assay: Cell viability by crystal violet staining; conditions: SK-N-AS neuroblastoma, p53 ?; 24 h
Experimental: as §1, §2

T24 = assay: Cell viability by crystal violet staining
Experimental: (§3) The following human tumor cell lines were assayed: A549 (lung carcinoma, ATCC CCL 185); HCT116 (colon carcinoma, ATCC CCL 247); SW480 (colon adenocarcinoma, ATCC CCL 228); MDA231 (breast adenocarcinoma, ATCC HTB 26); HeLa (cervical carcinoma, ATCC CCL 22); ME-180 (cervical carcinoma, ATCC HTB 33); T24 (bladder carcinoma. ATCC HTB 4); SK-N-AS (neuroblastoma, White et al., Proc. Natl. Acad. Sci., 92:5520-5524 (1995)). The cells were plated at 2.5×10^5 cells/ml in 96 well plates and incubated overnight. The cells were cultured in the presence of 2-fold dilutions of Apo-2 ligand (ranging from 100 ng/ml to 0.01 ng/ml). In some of the cultures, a chemotherapeuticagent was also added for 24 hours-cyclohexamide (“CHX”) (50 μg/ml; Sigma Chemicals), Doxorubicin (10-100 μg/ml; Pharmacia), or 5-FU (6 mg/ml; Roche). After 24 hours of incubation, the cells were stained with 0.5% crystal-violetin 20% methanol. Cell viability was determined by eluting the dye from the stained cells with 0.1M sodium citrate (0.1M citric acid in 50% methanol), and measuring absorbance at 540 nm.

ME-180 = assay: Cell viability by crystal violet staining
Experimental: as §3

SW480 = system: SW480
Experimental: as §3

B1: Apo-2L: purified soluble His10-tagged human Apo-2 ligand, residues 114-281, from baculovirus-infected Sf9 cells (Example 3); used in Examples 4-14 (protein)
chain: MGHHHHHHHHHHSSGHIDDDDKHMVRERGPQRVAAHITGTRGRSNTLSSPNSKNEKALGRKINSWESSRSGHSFLSNLHLRNGELVIHEKGFYYIYSQTYFRFQEEIKENTKNDKQMVQYIYKYTSYPDPILLMKSARNSCWSKDAEYGLYSIYQGGIFELKENDRIFVSVTNEHLIDMDHEASFFGAFLVG
**Q.** How did the “Apo-2L SENSITIVITY” value (HeLa; HeLa cervical carcinoma, p53 mut, 24 h) turn out when B1 was run?
**A.** + (>35% death after 24 h with 100 ng/ml Apo-2)

**Q.** And the “Apo-2L sensitivity ENHANCED BY CHX” value (HeLa; HeLa, cyclohexamide 50 μg/ml, 24 hours)?
**A.** yes

**Q.** What about the “Apo-2L SENSITIVITY” value (SK-N-AS) of the same molecule?
**A.** + (>35% death after 24 h with 100 ng/ml Apo-2)

**Q.** What about the “Apo-2L sensitivity ENHANCED BY Dox” value (T24; T24, Doxorubicin 10-100 μg/ml, 24 hours) of the same molecule?
**A.** yes

**Q.** And the “Apo-2L sensitivity ENHANCED BY CHX” value (T24; T24, cyclohexamide 50 μg/ml, 24 hours)?
**A.** yes

**Q.** What about the “Apo-2L SENSITIVITY” value (T24; T24 bladder carcinoma, p53 mut, 24 h) of the same molecule?
**A.** +++ (>70% death after 24 h with 10 ng/ml Apo-2L)

**Q.** What about the “Apo-2L sensitivity ENHANCED BY Dox” value (ME-180; ME180, Doxorubicin 10-100 μg/ml, 24 hours) of the same molecule?
**A.** yes

**Q.** And the “Apo-2L sensitivity ENHANCED BY CHX” value (ME-180; ME180, cyclohexamide 50 μg/ml, 24 hours)?
**A.** yes

**Q.** And the “Apo-2L SENSITIVITY” value (ME-180; ME180 cervical carcinoma, p53 WT, 24 h)?
**A.** ++ (>70% death after 24 h with 100 ng/ml Apo-2L)

**Q.** And the “Apo-2L sensitivity ENHANCED BY 5-FU” value (SW480)?
**A.** yes

**Q.** What about the “Apo-2L sensitivity ENHANCED BY Dox” value (SW480; SW480, Doxorubicin 10-100 μg/ml, 24 hours) of the same molecule?
**A.** yes

**Q.** And the “Apo-2L sensitivity ENHANCED BY CHX” value (SW480; SW480, cyclohexamide 50 μg/ml, 24 hours)?
**A.** yes

**Q.** And the “Apo-2L SENSITIVITY” value (SW480; SW480 colon carcinoma, p53 mut, 24 h)?
**A.** ++ (>70% death after 24 h with 100 ng/ml Apo-2L)
